Reference: patent US20220412967A1, “METHOD FOR CAPTURING CANDIDATE SUBSTANCE THAT CAN BIND TO COMPLEX OF MR1 PROTEIN AND BETA2 MICROGLOBULIN PROTEIN, METHOD FOR PRODUCING CANDIDATE SUBSTANCE THAT CAN BIND TO COMPLEX OF MR1 PROTEIN AND BETA2 MICROGLOBULIN PROTEIN, AND METHOD FOR PRODUCING LIGAND CANDIDATE SUBSTANCE FOR MAIT CELL” (OSAKA UNIVERSITY, priority 2019, published 2022)

What was measured:
[1] = biological target: T1, complex of soluble mMR1A, soluble mβ2m and Ac6FP (Mus musculus, UniProt Q8HWB0); assay: Thermodynamic stability of the complex (Tycho NT.6, F350/F330, 37 to 95° C.); assay type: physicochemical; settings: for melting point (inflection point of curve) of the complex: FIG. 1B
T1 construct: made in house
Description: When a MR1 protein, a β2 protein, and Ac6FP form a complex to form a normal folding, tryptophan in the protein can be measured at an absorbance of 330 nm. On the other hand, when the complex is heat treated and the complex is denatured, tryptophan in the protein is exposed by the thermal denaturation, and the tryptophan can be measured at an absorbance of 350 nm.
After mixing the soluble mMR1A and the soluble mβ2m obtained in Example 1 (1), Ac6FP (Cat. No.: 11.418, manufactured by Schircks Laboratories Co., Ltd.) was further added to the obtained mixed solution to form the complex in a buffer solution (reaction system of complex). The composition of the buffer was as follows: 100 mmol/l Tris-HCl (pH 8.1), 2 mmol/l EDTA (pH 8.1), 400 mmol/l L-Arginine, and 5 mol/1 Urea, and the pH was set to 8.1. In the reaction system of 250 ml of complex, the concentration of the soluble mMR1A was 30 μg/ml (total amount: 7.5 mg), the concentration of the soluble mβ2m was 30 μg/ml (total amount: 7.5 mg), and the concentration of Ac6FP was 8 μg/ml (total amount: 2 mg). The reaction temperature of the reaction system of the complex was set at 4° C., and the reaction time was set at 9 hours.
Sodium cyanoborohydride (NaBH3CN) was added to the obtained complex (0.01 mg/ml), so as to have a predetermined concentration (0, 0.005, 0.05, 0.5, or 5 mmol/1) and subjected to the reduction treatment at 4° C. for 5 minutes. Note that the pH in the reaction solution of the reduction reaction was set to about 7.2.
8 to 10 μl of a sample containing the complex after the reduction treatment was collected in a capillary and set to Tycho™ NT.6. The temperature was then increased to 37 to 95° C., and the thermodynamic stability of the complex was calculated from the melting point (an inflection point of curve).
FIGS. 1A and 1B are graphs of the thermodynamic stability of the complex. In FIGS. 1A and 1B, the horizontal axis indicates the temperature, and the vertical axis indicates the ratio of the absorbance at 350 nm (F350) to the absorbance at 330 nm (F330) (F350/F330). […]

[2] = biological target: T2, soluble murine MR1 protein isoform A (mouse, UniProt Q8HWB0 19-288); assay: refolding of E. coli proteins with the small-molecule ligand Ac6FP; complex then purified by anion exchange and gel filtration chromatography
T2 construct: also called soluble mMR1A; mMR1
Protocol: After the dialysis, the obtained sample was subjected to anion exchange chromatography under the purification condition 1 below to purify a crude purified product including the complex. After the start of the purification, the resultant was fractionated at 1 ml/fraction, and five fractions between 6 to 7 minutes from the start of purification were collected as fractions of the crude purified product.
Analytical instrument: AKTA pure25 (manufactured by GE Healthcare) Column: POROS™ HQ (manufactured by Applied Biosystems) [0108] […] 0 min: (A:B=100:0) [0111] 7.9 min: (A:B=50:50) Flow rate: 5 ml/min Fractionation volume: 1 ml/fraction
The obtained composition was then subjected to gel filtration chromatography under the purification condition 2 below to purify the complex from the crude purified product. After the start of the purification, the resultant was fractionated at 0.5 ml/fraction, and 4 fractions between 13 and 15 minutes from the start of purification were collected as a fraction containing the complex.

T1 sequence (Q8HWB0 19-288, one chain of several): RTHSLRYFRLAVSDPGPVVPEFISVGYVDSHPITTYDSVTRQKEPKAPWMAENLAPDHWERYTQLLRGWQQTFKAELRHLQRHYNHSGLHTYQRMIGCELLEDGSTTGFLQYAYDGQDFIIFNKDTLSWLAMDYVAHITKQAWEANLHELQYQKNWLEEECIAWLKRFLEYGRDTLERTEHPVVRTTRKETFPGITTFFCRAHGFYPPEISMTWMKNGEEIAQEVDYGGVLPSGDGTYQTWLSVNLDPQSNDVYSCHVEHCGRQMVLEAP
T2 sequence (Q8HWB0 19-288): as the sequence (Q8HWB0 19-288, one chain of several) above

| Molecule | melting point (inflection point of curve) of the complex ([1]; control not subjected to the reduction treatment (0 mmol/l NaBH3CN)) [°C] | melting point of the complex versus control not subjected to the reduction treatment ([1]; reduction treatment with NaBH3CN (0.005 to 5 mmol/l), FIG. 1A) | melting point (inflection point of curve) of the complex ([1]; treated with 5 mmol/l of sodium cyanoborohydride, 4° C., 5 minutes, pH about 7.2) [°C] | binding result [2] |
| --- | --- | --- | --- | --- |
| complex: complex formed from soluble mMR1A (SEQ ID NO: 10), soluble mβ2m (SEQ ID NO: 14) and the ligand Ac6FP | 72.2 | increased | 73.9 |  |
| soluble mouse β2 microglobulin protein (other, Recombinant from Escherichia coli; also called soluble mβ2m) b2m: IQKTPQIQVYSRHPPENGKPNILNCYVTQFHPPHIEIQMLKNGKKIPKVEMSDMSFSKDWSFYILAHTEFTPTETDTYACRVKHASMAEPKTVYWDRDM |  |  |  | binds |
